The values that follow come from IntAct's records for PubMed 8174709.

B1: Ferredoxin--NADP reductase, chloroplastic (Spinacia oleracea (Spinach)), P00455 (parent)
chain: MTTAVTAAVSFPSTKTTSLSARSSSVISPDKISYKKVPLYYRNVSATGKMGPIRAQIASDVEAPPPAPAKVEKHSKKMEEGITVNKFKPKTPYVGRCLLNTKITGDDAPGETWHMVFSHEGEIPYREGQSVGVIPDGEDKNGKPHKLRLYSIASSALGDFGDAKSVSLCVKRLIYTNDAGETIKGVCSNFLCDLKPGAEVKLTGPVGKEMLMPKDPNATIIMLGTGTGIAPFRSFLWKMFFEKHDDYKFNGLAWLFLGVPTSSSLLYKEEFEKMKEKAPDNFRLDFAVSREQTNEKGEKMYIQTRMAQYAVELWEMLKKDNTYFYMCGLKGMEKGIDDIMVSLAAAEGIDWIEYKRQLKKAEQWNVEVY

In the assay the parent is B1. The conditions noted are these: with fer1_spiol PETF.
In the case of MTTAVTAAVSFPSTKTTSLSARSSSVISPDKISYKKVPLYYRNVSATGKMGPIRAQIASDVEAPPPAPAKVEKHSKKMEEGITVNKFQPKTPYVGRCLLNTKITGDDAPGETWHMVFSHEGEIPYREGQSVGVIPDGEDKNGKPHKLRLYSIASSALGDFGDAKSVSLCVKRLIYTNDAGETIKGVCSNFLCDLKPGAEVKLTGPVGKEMLMPKDPNATIIMLGTGTGIAPFRSFLWKMFFEKHDDYKFNGLAWLFLGVPTSSSLLYKEEFEKMKEKAPDNFRLDFAVSREQTNEKGEKMYIQTRMAQYAVELWEMLKKDNTYFYMCGLKGMEKGIDDIMVSLAAAEGIDWIEYKRQLKKAEQWNVEVY [K88Q], the “effect of a mutation on the interaction” value is listed as “decreasing interaction”.
